From patent US20080119428A1 (ONCOTHERAPY SCIENCE, published 2008)

Target: T1, EPRS (glutamyl-prolyl tRNA synthetase) (UniProt P07814 1-1512)
T1 construct: Endogenous protein in LC319 cell lysate, identified by MALDI-TOF mass spectrometry as a 180-kDa band; also called 180-kDa band
Assay: tandem immunoprecipitation (anti-FLAG M2, then anti-HA) from transfected LC319 lysate, silver-stained SDS-PAGE, MALDI-TOF MS
Description: Cell extracts from lung-cancer cell line LC319 transfected with the plasmids expressing N-terminal FLAG-tagged and C-terminal HA-tagged-pCAGGS-IMS-E21 (URLC8) vector or mock vector (control) were pre-cleared by incubation at 4° C. for 1 hour with 100 μL of protein G-agarose beads in a final volume of 2 ml of IP-buffer (0.5% NP-40, 50 mM Tris-HCl, 150 mM NaCl) in the presence of proteinase inhibitor. After centrifugation at 1000 rpm for 5 min at 4° C., the supernatant was incubated at 4° C. with anti-Flag M2 agarose for 2 hours. The beads were then collected by centrifugation at 5000 rpm for 2 min and washed six times with 1 ml of each immunoprecipitation buffer. Then, the washed beads were eluted by Flag-peptide (Sigma-Aldrich Co., St. Louis, Mo.). The elution was incubated at 4° C. with anti-HA agarose for 2 hours. The washed beads were resuspended in 50 μL of Laemmli sample buffer and boiled for 5 min, and the proteins were separated by 5-10% SDS PAGE gels (BIO RAD). After electrophoresis, the gels were stained with silver. Protein bands specifically found in IMS-E21 (URLC8)- transfected extracts were excised and served for matrix-assisted laser desorption/ionization-time of flight mass spectrometry (MALDI-TOF-MS) analysis (AXIMA-CFR plus, SHIMADZU BIOTECH, Kyoto, Japan). […]

T1 sequence (P07814 whole entry): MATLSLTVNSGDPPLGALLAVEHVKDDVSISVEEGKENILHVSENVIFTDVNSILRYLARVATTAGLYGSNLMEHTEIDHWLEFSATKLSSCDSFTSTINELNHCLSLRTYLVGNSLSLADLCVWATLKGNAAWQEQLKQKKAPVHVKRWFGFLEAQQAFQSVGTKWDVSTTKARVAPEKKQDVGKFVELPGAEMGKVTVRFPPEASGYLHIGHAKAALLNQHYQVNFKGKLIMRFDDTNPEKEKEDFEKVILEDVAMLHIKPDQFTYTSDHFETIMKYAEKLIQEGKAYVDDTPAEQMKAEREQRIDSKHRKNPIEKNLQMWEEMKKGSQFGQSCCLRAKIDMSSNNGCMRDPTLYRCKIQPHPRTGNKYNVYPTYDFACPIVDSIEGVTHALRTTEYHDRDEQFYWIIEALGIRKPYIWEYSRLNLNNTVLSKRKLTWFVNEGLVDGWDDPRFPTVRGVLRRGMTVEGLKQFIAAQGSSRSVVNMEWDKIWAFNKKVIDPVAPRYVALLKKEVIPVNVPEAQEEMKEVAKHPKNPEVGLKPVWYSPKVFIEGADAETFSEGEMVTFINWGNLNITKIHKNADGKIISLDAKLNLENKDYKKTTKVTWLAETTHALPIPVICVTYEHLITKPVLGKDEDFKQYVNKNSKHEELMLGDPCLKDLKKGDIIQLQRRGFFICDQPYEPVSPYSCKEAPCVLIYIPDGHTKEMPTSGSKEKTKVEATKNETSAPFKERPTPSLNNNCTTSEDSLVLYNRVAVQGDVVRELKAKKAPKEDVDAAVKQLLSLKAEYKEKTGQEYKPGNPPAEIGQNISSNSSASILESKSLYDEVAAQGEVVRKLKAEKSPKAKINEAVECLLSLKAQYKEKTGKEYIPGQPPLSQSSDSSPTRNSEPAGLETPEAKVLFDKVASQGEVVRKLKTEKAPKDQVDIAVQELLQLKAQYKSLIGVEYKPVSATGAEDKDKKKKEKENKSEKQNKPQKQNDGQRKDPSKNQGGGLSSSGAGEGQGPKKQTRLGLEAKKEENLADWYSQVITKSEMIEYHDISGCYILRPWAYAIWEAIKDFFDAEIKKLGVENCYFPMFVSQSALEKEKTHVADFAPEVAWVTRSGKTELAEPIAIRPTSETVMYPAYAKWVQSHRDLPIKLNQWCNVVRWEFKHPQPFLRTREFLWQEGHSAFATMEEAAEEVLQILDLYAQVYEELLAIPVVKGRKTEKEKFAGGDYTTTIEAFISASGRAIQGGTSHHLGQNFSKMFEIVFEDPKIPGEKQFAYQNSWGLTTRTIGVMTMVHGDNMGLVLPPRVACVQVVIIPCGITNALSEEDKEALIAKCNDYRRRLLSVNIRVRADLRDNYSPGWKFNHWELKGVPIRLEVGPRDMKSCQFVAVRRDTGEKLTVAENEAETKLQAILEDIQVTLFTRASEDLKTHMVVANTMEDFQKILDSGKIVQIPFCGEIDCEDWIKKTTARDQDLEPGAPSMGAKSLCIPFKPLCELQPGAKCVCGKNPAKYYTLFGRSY

B1: N-terminal FLAG-tagged and C-terminal HA-tagged IMS-E21 (URLC8) (enzyme)
chain: MILNSLSLCYHNKLILAPMVRVGTLPMRLLALDYGADIVYCEELIDLKMIQCKRVVNEVLSTVDFVAPDDRVVFRTCEREQNRVVFQMGTSDAERALAVARLVENDVAGIDVNMGCPKQYSTKGGMGAALLSDPDKIEKILSTLVKGTRRPVTCKIRILPSLEDTLSLVKRIERTGIAAIAVHGRKREERPQHPVSCEVIKAIADTLSIPVIANGGSHDHIQQYSDIEDFRQATAASSVMVARAAMWNPSIFLKEGLRPLEEVMQKYIRYAVQYDNHYTNTKYCLCQMLREQLESPQGRLLHAAQSSREICEAFGLGAFYEETTQELDAQQARLSAKTSEQTGEPAEDTSGVIKMAVKFDRRAYPAQITPKMCLLEWCRREKLAQPVYETVQRPLDRLFSSIVTVAEQKYQSTLWDKSKKLAEQAAAIVCLRSQGLPEGRLGEESPSLHKRKREAPDQDPGGPRAQELAQPGDLCKKPFVALGSGEESPLEGW
notes: Expressed from a pCAGGS vector in transfected LC319 cells; also called FLAG-tagged and HA-tagged-pCAGGS-IMS-E21; not shown: N-terminal FLAG tag; C-terminal HA tag
binding result: binds
